Target: the molecule itself
Test: cryo-EM structure

B1: EccD5 of the ESX-5 type VII secretion system of M. tuberculosis H37Rv (natural protein)
chain: MTAVADAPQADIEGVASPQAVVVGVMAGEGVQIGVLLDANAPVSVMTDPLLKVVNSRLRELGEAPLEATGRGRWALCLVDGAPLRATQSLTEQDVYDGDRLWIRFIADTERRSQVIEHISTAVASDLSKRFARIDPIVAVQVGASMVATGVVLATGVLGWWRWHHNTWLTTIYTAVIGVLVLAVAMLLLMRAKTDADRRVADIMLMSAIMPVTVAAAAAPPGPVGSPQAVLGFGVLTVAAALALRFTGRRLGIYTTIVIIGALTMLAALARMVAATSAVTLLSSLLLICVVAYHAAPALSRRLAGIRLPVFPSATSRWVFEARPDLPTTVVVSGGSAPVLEGPSSVRDVLLQAERARSFLSGLLTGLGVMVVVCMTSLCDPHTGQRWLPLILAGFTSGFLLLRGRSYVDRWQSITLAGTAVIIAAAVCVRYALELSSPLAVSIVAAILVLLPAAGMAAAAHVPHTIYSPLFRKFVEWIEYLCLMPIFPLALWLMNVYAAIRYR
In the case of B1, the “stoichiometry N” value is reported as 2.

B2: EccC5 ATPase of the ESX-5 type VII secretion system of M. tuberculosis H37Rv (natural protein)
chain: MKRGFARPTPEKPPVIKPENIVLSTPLSIPPPEGKPWWLIVVGVVVVGLLGGMVAMVFASGSHVFGGIGSIFPLFMMVGIMMMMFRGMGGGQQQMSRPKLDAMRAQFMLMLDMLRETAQESADSMDANYRWFHPAPNTLAAAVGSPRMWERKPDGKDLNFGVVRVGVGMTRPEVTWGEPQNMPTDIELEPVTGKALQEFGRYQSVVYNLPKMVSLLVEPWYALVGEREQVLGLMRAIICQLAFSHGPDHVQMIVVSSDLDQWDWVKWLPHFGDSRRHDAAGNARMVYTSVREFAAEQAELFAGRGSFTPRHASSSAQTPTPHTVIIADVDDPQWEYVISAEGVDGVTFFDLTGSSMWTDIPERKLQFDKTGVIEALPRDRDTWMVIDDKAWFFALTDQVSIAEAEEFAQKLAQWRLAEAYEEIGQRVAHIGARDILSYYGIDDPGNIDFDSLWASRTDTMGRSRLRAPFGNRSDNGELLFLDMKSLDEGGDGPHGVMSGTTGSGKSTLVRTVIESLMLSHPPEELQFVLADLKGGSAVKPFAGVPHVSRIITDLEEDQALMERFLDALWGEIARRKAICDSAGVDDAKEYNSVRARMRARGQDMAPLPMLVVVIDEFYEWFRIMPTAVDVLDSIGRQGRAYWIHLMMASQTIESRAEKLMENMGYRLVLKARTAGAAQAAGVPNAVNLPAQAGLGYFRKSLEDIIRFQAEFLWRDYFQPGVSIDGEEAPALVHSIDYIRPQLFTNSFTPLEVSVGGPDIEPVVAQPNGEVLESDDIEGGEDEDEEGVRTPKVGTVIIDQLRKIKFEPYRLWQPPLTQPVAIDDLVNRFLGRPWHKEYGSACNLVFPIGIIDRPYKHDQPPWTVDTSGPGANVLILGAGGSGKTTALQTLICSAALTHTPQQVQFYCLAYSSTALTTVSRIPHVGEVAGPTDPYGVRRTVAELLALVRERKRSFLECGIASMEMFRRRKFGGEAGPVPDDGFGDVYLVIDNYRALAEENEVLIEQVNVIINQGPSFGVHVVVTADRESELRPPVRSGFGSRIELRLAAVEDAKLVRSRFAKDVPVKPGRGMVAVNYVRLDSDPQAGLHTLVARPALGSTPDNVFECDSVVAAVSRLTSAQAPPVRRLPARFGVEQVRELASRDTRQGVGAGGIAWAISELDLAPVYLNFAENSHLMVTGRRECGRTTTLATIMSEIGRLYAPGASSAPPPAPGRPSAQVWLVDPRRQLLTALGSDYVERFAYNLDGVVAMMGELAAALAGREPPPGLSAEELLSRSWWSGPEIFLIVDDIQQLPPGFDSPLHKAVPFVNRAADVGLHVIVTRTFGGWSSAGSDPMLRALHQANAPLLVMDADPDEGFIRGKMKGGPLPRGRGLLMAEDTGVFVQVAATEVRR
With B2 the “stoichiometry N” value was 2.

B3: MycP5 protease (mycosin) of the ESX-5 type VII secretion system of M. tuberculosis H37Rv (enzyme)
chain: ISPPTIDPGALPPDGPPGPLAPMKQNAYCTEVGVLPGTDFQLQPKYMEMLNLNEAWQFGRGDGVKVAVIDTGVTPHPRLPRLIPGGDYVMAGGDGLSDCDAHGTLVASMIAAVPANGAVPLPSVPRRPVTIPTTETPPPPQTVTLSPVPPQTVTVIPAPPPEEGVPPGAPVPGPEPPPAPGPQPPAVDRGGGTVTVPSYSGGRKIAPIDNPRNPHPSAPSPALGPPPDAFSGIAPGVEIISIRQSSQAFGLKDPYTGDEDPQTAQKIDNVETMARAIVHAANMGASVINISDVMCMSARNVIDQRALGAAVHYAAVDKDAVIVAAAGDGSKKDCKQNPIFDPLQPDDPRAWNAVTTVVTPSWFHDYVLTVGAVDANGQPLSKMSIAGPWVSISAPGTDVVGLSPRDDGLINAIDGPDNSLLVPAGTSFSAAIVSGVAALVRAKFPELSAYQIINRLIHTARPPARGVDNQVGYGVVDPVAALTWDVPKGPAEPPKQLSAPLVVPQPPAPRDMVPIWVAAGGLAGALLIGGAVFGTATLMRRSRKQQ
For B3, the “stoichiometry N” value was 3.

B4: EccB5 of the ESX-5 type VII secretion system of M. tuberculosis H37Rv (natural protein)
chain: MAEESRGQRGSGYGLGLSTRTQVTGYQFLARRTAMALTRWRVRMEIEPGRRQTLAVVASVSAALVICLGALLWSFISPSGQLNESPIIADRDSGALYVRVGDRLYPALNLASARLITGRPDNPHLVRSSQIATMPRGPLVGIPGAPSSFSPKSPPASSWLVCDTVATSSSIGSLQGVTVTVIDGTPDLTGHRQILSGSDAVVLRYGGDAWVIREGRRSRIEPTNRAVLLPLGLTPEQVSQARPMSRALFDALPVGPELLVPEVPNAGGPATFPGAPGPIGTVIVTPQISGPQQYSLVLGDGVQTLPPLVAQILQNAGSAGNTKPLTVEPSTLAKMPVVNRLDLSAYPDNPLEVVDIREHPSTCWWWERTAGENRARVRVVSGPTIPVAATEMNKVVSLVKADTSGRQADQVYFGPDHANFVAVTGNNPGAQTSESLWWVTDAGARFGVEDSKEARDALGLTLTPSLAPWVALRLLPQGPTLSRADALVEHDTLPMDMTPAELVVPK
For B4, the “stoichiometry N” value was 6.

— publication doi:10.1101/2020.12.02.408906 (bioRxiv, 2020)
